Biological target: the molecule itself
Test: cryo-EM structure; single-particle cryo-EM with Build and Retrieve (BaR) on the 100-200 kD SEC peak of raw human kidney microsome lysate; 20 mM Tris-HCl pH 7.5, 100 mM NaCl; 0.6 mg/ml

B1: betaine-homocysteine methyltransferase (BHMT) (enzyme, human (endogenous in kidney microsomes), UniProt Q93088 1-406, looked up)
chain: MPPVGGKKAKKGILERLNAGEIVIGDGGFVFALEKRGYVKAGPWTPEAAVEHPEAVRQLHREFLRAGSNVMQTFTFYASEDKLENRGNYVLEKISGQEVNEAACDIARQVADEGDALVAGGVSQTPSYLSCKSETEVKKVFLQQLEVFMKKNVDFLIAEYFEHVEEAVWAVETLIASGKPVAATMCIGPEGDLHGVPPGECAVRLVKAGASIIGVNCHFDPTISLKTVKLMKEGLEAARLKAHLMSQPLAYHTPDCNKQGFIDLPEFPFGLEPRVATRWDIQKYAREAYNLGVRYIGGCCGFEPYHIRAIAEELAPERGFLPPASEKHGSWGSGLDMHTKPWVRARARKEYWENLRIASGRPYNPSMSKPDGWGVTKGTAELMQQKEATTEQQLKELFEKQKFKSQ
notes: human BHMT, endogenous in kidney microsomes; Zn2+-free and ligand-free in the structure; also called betaine-homocysteine S-methyltransferase; source: endogenous, human kidney microsomes (bought: SEKISUI XenoTech), lysate enriched by size exclusion chromatography
- stoichiometry N: 4

— paper PMC9713302, “Simultaneous solving high-resolution structures of various enzymes from human kidney microsomes” (Life Science Alliance, 2022)
